# Data from patent US20110076279A1 (SCHERING, published 2011).
# Numbering of substitutions follows the chain as printed.
# T1: murine VEGF165 (mVEGF165) (murine, UniProt Q00731-2 27-190)
# T1 construct: also called rMu-VEGF165; recombinant mVEGF165
# T1 sequence (looked up): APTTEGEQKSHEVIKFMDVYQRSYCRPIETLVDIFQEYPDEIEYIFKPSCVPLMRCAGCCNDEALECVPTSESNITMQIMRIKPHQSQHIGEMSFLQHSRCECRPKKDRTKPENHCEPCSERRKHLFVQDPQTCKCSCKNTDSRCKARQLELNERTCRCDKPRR
# T2: hVEGF121-G92A (human, UniProt P15692-9 27-147, G92A)
# T2 construct: Transiently expressed in CHO-K1 cells; culture supernatant used
# T2 sequence (looked up): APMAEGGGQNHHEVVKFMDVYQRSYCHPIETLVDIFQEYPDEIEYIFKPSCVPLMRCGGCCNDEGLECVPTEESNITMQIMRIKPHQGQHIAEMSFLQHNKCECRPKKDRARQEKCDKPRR
# T3: hVEGF121-G88S (human, UniProt P15692-9 27-147, G88S)
# T3 construct: Transiently expressed in CHO-K1 cells; culture supernatant used
# T3 sequence (looked up): T2 sequence (looked up) with G88S, A92G
# T4: hVEGF121-M81A (human, UniProt P15692-9 27-147)
# T4 construct: Transiently expressed in CHO-K1 cells; culture supernatant used
# T4 sequence (looked up): T2 sequence (looked up) with M81A, A92G
# T5: wild-type hVEGF121 (human, UniProt P15692-9 27-147)
# T5 construct: Isoform VEGF121 of P15692
# T5 sequence (looked up): T2 sequence (looked up) with A92G
# T6: hVEGF121-Q89A (human, UniProt P15692-9 27-147, Q89A)
# T6 construct: Transiently expressed in CHO-K1 cells; culture supernatant used
# T6 sequence (looked up): T2 sequence (looked up) with Q89A, A92G
# B1: XPA.10.072 scFv (scFv, part only; not given: linker, domain order, tags, V domains shown, not shown: another chain or arm of the molecule; large carriers; small tags and cut ends)
# VH: RLQLVQSGAEVRKPGASVKVSCKASGYSFTGHYIHWARQAPGQGLEWMGWINPYSGGTNFPREFQGRVTMTRDTSVNTVYMELTRLTSDDTSVYYCARDHRIVGGLDYWGQGTLVTVSS
# VL: QSVLTQPPSASGTPGQRVTISCSGSSSNLGSNFVYWYQQLPGTAPKLLIYRNHQRPSGVPDRFSGSKSGTSASLAISGLRSEDEADYYCASWDDSLRVVVFGGGTKLTVL
# B2: XPA.10.064 IgG2 (antibody, V domains shown)
# VH: B1 VH with R1E, L2V, A37V
# VL: B1 VL with Q1S, S2Y, L29I, S31I, F33Y, H53D, S91T, R97S, V98G, L107V
# notes: Fully human antibody from an scFv phage library, converted to IgG2 (gamma-2 heavy chain constant region); also called VPA.10.064
# B3: XPA.10.064 scFv-Fc (Fc fusion, not shown: a dimerising Fc or GST; small tags and cut ends)
# VH: B1 VH with R1E, L2V, A37V
# VL: B1 VL with Q1S, S2Y, L29I, S31I, F33Y, H53D, S91T, R97S, V98G, L107V
# B4: XPA.10.064 scFv (scFv, part only; not given: linker, domain order, tags, V domains shown, not shown: another chain or arm of the molecule; large carriers; small tags and cut ends)
# VH: B1 VH with R1E, L2V, A37V
# VL: B1 VL with Q1S, S2Y, L29I, S31I, F33Y, H53D, S91T, R97S, V98G, L107V
# B5: XPA.10.072 IgG2 (antibody, V domains shown)
# VH: B1 VH
# VL: B1 VL
# notes: Fully human antibody from an scFv phage library, converted to IgG2 (gamma-2 heavy chain constant region); also called XPA.072; VPA.10.072
# B6: XPA.10.072 scFv-Fc (Fc fusion, not shown: a dimerising Fc or GST; small tags and cut ends)
# VH: B1 VH
# VL: B1 VL
# Assays:
# human VEGF165 (hVEGF165) [1] = target: T7, human VEGF165 (hVEGF165) (human, UniProt P15692 207-395); assay: DELFIA competition, biotinylated hVEGF165 0.5 µg/ml plus periplasmic scFv on VEGF-R1 or VEGF-R2 coated plate
# human VEGF165 (hVEGF165) [2] = target: T7, human VEGF165 (hVEGF165); assay: cell-based or functional assay
# [3] = target: T1, murine VEGF165 (mVEGF165); assay: sandwich ELISA, antibody coated 5 ug/ml; sandwich ELISA, Ab coated at 5 ug/ml, murine VEGF165 at 1 ug/ml; signal at background, i.e. no binding
# Experimental: (§1) The plate was blocked with 30% ChemiBlock™ reagent (Millipore) in PBS for one hour at room temperature, and 30, 60, or 100 μl of CHO-K1 culture supernatant for each mutant, or 1 μg/ml of wild-type hVEGF₁₂₁, recombinant hVEGF₁₆₅, or recombinant mVEGF₁₆₅, was added to appropriate wells. After one hour of incubation, the plate was washed and incubated with a biotinylated goat polyclonal anti-VEGF antibody for one hour at room temperature. Detection was performed with HRP-conjugated streptavidin, followed by TMB chromogenic substrate (Calbiochem) using manufacturer protocol.
# hVEGF121-G92A = target: T2, hVEGF121-G92A; assay: sandwich ELISA, antibody coated 5 ug/ml
# Experimental: as §1
# hVEGF121-G88S = target: T3, hVEGF121-G88S; assay: sandwich ELISA, antibody coated 5 ug/ml
# Experimental: as §1
# hVEGF121-M81A = target: T4, hVEGF121-M81A; assay: sandwich ELISA, antibody coated 5 ug/ml
# Experimental: as §1
# wild-type hVEGF121 = target: T5, wild-type hVEGF121; assay: sandwich ELISA, antibody coated 5 ug/ml
# Experimental: as §1
# hVEGF121-Q89A = target: T6, hVEGF121-Q89A; assay: sandwich ELISA, antibody coated 5 ug/ml
# Experimental: as §1
# human VEGF165 (hVEGF165) [4] = target: T7, human VEGF165 (hVEGF165); assay: sandwich ELISA, antibody coated 5 ug/ml
# Experimental: as §1
# human VEGF165 (hVEGF165) [5] = target: T7, human VEGF165 (hVEGF165); assay: Biacore, IgG2 (summary table)
# Experimental: Dilution and running buffer for these experiments was HBS-EP (Biacore) with 1:50 dilution of Chemiblocker® (Chemicon). […] Antibody concentrations were approximately 0.5 μg/ml. hVEGF₁₆₅ expressed from sf21 cells was injected over five minutes at 30 μl/minute using the Kinject feature with 15 minute dissociation over fc1 and 2. […] Regenerations were performed with two injections of 100 mM HCl at 50 μl/minutes for twelve seconds each. Data was processed in Scrubber2 and fit by a 1:1 Langmuir interaction model after double referencing of the control flow cell and blank injections.
# human VEGF165 (hVEGF165) [6] = target: T7, human VEGF165 (hVEGF165); assay: Biacore
# human VEGF165 (hVEGF165) [7] = target: T7, human VEGF165 (hVEGF165); assay: cell-based or functional assay; remark: listed apart in the source
Binder,percent inhibition of hVEGF165 binding to receptor (human VEGF165 (hVEGF165) [1]),"Inhibition of HUVEC proliferation, HEK 293 hVEGF165, EC50 (human VEGF165 (hVEGF165) [2])",fold over background [3],fold over background (hVEGF121-G92A),fold over background (hVEGF121-G88S),fold over background (hVEGF121-M81A),fold over background (wild-type hVEGF121),fold over background (hVEGF121-Q89A),fold over background (human VEGF165 (hVEGF165) [4]),Kd (human VEGF165 (hVEGF165) [5]),off-rate relative to Bevacizumab (human VEGF165 (hVEGF165) [6]),IC50 (human VEGF165 (hVEGF165) [7])
B1,> 60%,,,,,,,,,,,
B2,,0.66 µg/mL,0.7 fold,22.8 fold,0.9 fold,9.5 fold,29.1 fold,3.5 fold,23 fold,1.5 nM,~2 fold,
B3,,,,,,,,,,,,0.41 µg/mL
B4,> 60%,,,,,,,,,,,
B5,,0.68 µg/mL,1.1 fold,30.5 fold,1 fold,13.4 fold,31.8 fold,3.3 fold,29.2 fold,1.7 nM,~2 fold,
B6,,,,,,,,,,,,> 1 µg/mL
